Experiments:
rhNav1.7α + β1-β2-β3 = rhNav1.7α + β1-β2-β3 (rhesus monkey); experiment: cell-based or functional assay
huNav1.7α + β1 = huNav1.7α + β1 (human); experiment: cell-based or functional assay
[1] = biological target: T1, huNav1.7α + β1 (human Nav1.7α co-expressed with Navβ1) (human, UniProt Q15858 1-1988; Q07699 19-218); experiment: binding FACS, HEKa/β1 cells
T1 construct: also called HEK293 human Nav1.7α + β1; HEKa/β1 Nav1.7α

[2] = biological target: T2, huNav157 chimera 14 + β1-β2-β3 (human); experiment: binding FACS, HEK FlpIn cells
T2 construct: Chimera of huNav1.7α (extracellular loops and transmembrane helices) and huNav1.5α (intracellular loops); also called Nav157ch14-β1-β2-β3; huNav157 chimera 14-beta1-beta2-beta3

huNav157 chimera 14 = biological target: T3, huNav157 chimera 14 (human); experiment: binding FACS, HEK FlpIn cells
T3 construct: Chimera without β subunits; also called Nav157ch14

[3] = biological target: T4, huNav1.7α (human Nav1.7 alpha subunit, expressed without β subunits) (human, UniProt Q15858 1-1988); experiment: binding FACS, HEKa cells
T4 construct: also called HEK293 human Nav1.7α; HEKa Nav1.7α

huNav1.7α = huNav1.7α (human, UniProt Q15858 1-1988); experiment: cell-based or functional assay
rhNav1.7α = rhNav1.7α (rhesus monkey, UniProt Q15858 1-1988 (human entry)); experiment: cell-based or functional assay
rhNav1.7α+β1-β2-β3 = biological target: T5, rhNav1.7α+β1-β2-β3 (rhesus monkey α subunit with human β …); experiment: binding FACS, CHO FlpIn cells
T5 construct: P2A cleaves it into α, β1, β2, β3; also called rhNav1.7-beta1-beta2-beta3

| Binder | Qpatch IC50 (rhNav1.7α + β1-β2-β3) [nM] | Qpatch IC50 (huNav1.7α + β1) [nM] | EC50 [1] [nM] | EC50 [2] [nM] | Bmax (huNav157 chimera 14) [%] | EC50 (huNav157 chimera 14) [nM] | Bmax [3] [%] | EC50 [3] [nM] | further results |
| --- | --- | --- | --- | --- | --- | --- | --- | --- | --- |
| F010302383 (VHH) VHH: EVQLVESGGGVVQPGGSLRLSCAASGPVFNINRMAWYRQAPGKQRELVAYVTPTGDISYADSVKGRFTISRGGSKRVYLQMNSLRPEDTALYYCRALLQPSSYSGTRTYWGQGTLVTVSS | 3 | 22 |  |  |  |  |  |  |  |
| F010301643 (VHH, also called F0103387G05(L11V, A14P, D23A, N82bS, N83R, V89L, R105Q)) VHH: EVQLVESGGGVVQPGGSLRLSCAASGRILRIGYMRWHRQGAGKQREFVARITDDSATDYADSVKGRFTISRDNAKNTVYLQMNSLRPEDTALYYCEALVTASVRGGSIHSGTYWGQGTLVTVSS |  |  | 3.4 | 3.6 | 100 | 3.7 | 100 | 4.1 |  |
| F010301646 (VHH, also called F0103387G05(L11V, A14P, A41P, N82bS, N83R, V89L, R105Q)) VHH: EVQLVESGGGVVQPGGSLRLSCDASGRILRIGYMRWHRQGPGKQREFVARITDDSATDYADSVKGRFTISRDNAKNTVYLQMNSLRPEDTALYYCEALVTASVRGGSIHSGTYWGQGTLVTVSS |  |  | 4.1 | 4.2 | 100 | 3.1 | 100 | 4.4 |  |
| F010301649 (VHH, also called F0103387G05(L11V, A14P, N82bS, N83R, V89L, R105Q)) VHH: EVQLVESGGGVVQPGGSLRLSCDASGRILRIGYMRWHRQGAGKQREFVARITDDSATDYADSVKGRFTISRDNAKNTVYLQMNSLRPEDTALYYCEALVTASVRGGSIHSGTYWGQGTLVTVSS |  |  | 4.1 | 4.2 | 100 | 3.4 | 100 | 5.3 |  |
| F010301645 (VHH, also called F0103387G05(L11V, A14P, G40A, N82bS, N83R, V89L, R105Q)) VHH: EVQLVESGGGVVQPGGSLRLSCDASGRILRIGYMRWHRQAAGKQREFVARITDDSATDYADSVKGRFTISRDNAKNTVYLQMNSLRPEDTALYYCEALVTASVRGGSIHSGTYWGQGTLVTVSS |  |  | 4.2 | 4.6 | 100 | 3.9 | 100 | 4.7 |  |
| F010301644 (VHH, also called F0103387G05(L11V, A14P, H37Y, N82bS, N83R, V89L, R105Q)) VHH: EVQLVESGGGVVQPGGSLRLSCDASGRILRIGYMRWYRQGAGKQREFVARITDDSATDYADSVKGRFTISRDNAKNTVYLQMNSLRPEDTALYYCEALVTASVRGGSIHSGTYWGQGTLVTVSS |  |  | 5 | 4.9 | 100 | 4.4 | 100 | 5.7 |  |
| F010300316 (VHH, vs F0103275B05: T57W) VHH: EVQLVESGGGLVQPGGSLRLSCAASGSIFNINSMAWYRRAPGKQRELVASSTNGGSWNYADSVKGRFTISRDNAKRVYLQMNSLTPEDTAVYYCNALLQPSIYDISRTYWGQGTLVTVSS |  |  |  |  |  |  |  |  | 2-pulse IC50 [M], P1 (huNav1.7α): 2e-06 M; 2-pulse IC50 [M], P2 (huNav1.7α): 1e-06 M; 2-pulse IC50 [M], P1 (rhNav1.7α): 5e-06 M; 2-pulse IC50 [M], P2 (rhNav1.7α): 4e-06 M; EC50 (rhNav1.7α+β1-β2-β3): 170 nM |
| F010300948 (VHH) VHH: EVQLVESGGGLVQPGGSLRLSCAASGPVFNINRMAWYRRAPGKQRELVASSTPGGSTNYADSVKGRFTISRDNAKRVYLQMNSLTPEDTAVYYCRWLLQPSIYDISRIYWGQGTLVTVSS | 58 | 315 |  |  |  |  |  |  |  |
| F010300900 (VHH) VHH: EVQLVESGGGLVQPGGSLRLSCAASGPVFNINRMAWYRRAPGKQRELVASSTPGGDTNYADSVKGRFTISRDNAKRVYLQMNSLTPEDTAVYYCRWLLQPSIYDISRIYWGQGTLVTVSS | 36 | 196 |  |  |  |  |  |  |  |
| F010300880 (VHH) VHH: EVQLVESGGGLVQPGGSLRLSCAASGPVFNINRMAWYRRAPGKQRELVASSTPGGDTNYADSVKGRFTISRDNAKRVYLQMNSLTPEDTAVYYCRWLLQPSIYDISRTYWGQGTLVTVSS | 122 | 27 |  |  |  |  |  |  |  |
| F010300631 (VHH) VHH: EVQLVESGGGLVQPGGSLRLSCAASGPVFNINSMAWYRRAPGKQRELVAYSTPGGSTNYADSVKGRFTISRDNAKRVYLQMNSLTPEDTAVYYCRALLQPSIYDISRTYWGQGTLVTVSS | 173 | 73 |  |  |  |  |  |  |  |

Reference: patent US20240002497A1 (Merck Sharp & Dohme, published 2024)
